Among the data in patent publication US20260234283A1 (published 2026) are Kd values, retold here.

The chains are these.
T1: recombinant cyno SIRPα-His (cynomolgus monkey, UniProt A0A2K5VYQ9 31-372)
T1 chain: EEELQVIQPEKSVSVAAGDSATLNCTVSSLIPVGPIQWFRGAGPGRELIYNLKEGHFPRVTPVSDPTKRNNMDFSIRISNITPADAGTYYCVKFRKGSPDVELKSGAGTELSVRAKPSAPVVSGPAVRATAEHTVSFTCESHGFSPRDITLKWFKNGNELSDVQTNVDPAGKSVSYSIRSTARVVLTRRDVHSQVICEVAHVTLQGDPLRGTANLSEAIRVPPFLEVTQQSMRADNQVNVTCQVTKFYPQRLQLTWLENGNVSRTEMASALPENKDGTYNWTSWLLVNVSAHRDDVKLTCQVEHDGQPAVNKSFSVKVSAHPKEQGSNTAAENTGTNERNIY

B1: 49.91C2.A9 (antibody, V domains shown)
VH: EVKLLESGGGLVQPGGSLKLSCAASGFDFSRYWMSWVRQAPGKGLEWIGEINPDSSTINYTPSLKDKFIISRDNAKNTLYLQMSKVRSEDTALYYCATSFYGSSYWYFDVWGAGTTVTVSS
VL: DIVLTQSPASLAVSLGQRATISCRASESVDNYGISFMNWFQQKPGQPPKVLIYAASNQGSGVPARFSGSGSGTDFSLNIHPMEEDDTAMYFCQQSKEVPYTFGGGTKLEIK
B2: 49.64D3.A6 (antibody, V domains shown)
VH: EVMLVESGGGLVKPGGSLKLTCAASGFIFSNYAMSWVRQTPEKRLEWVATFSSGGSYTYYQDSVKGRFTVSRDNAKNTLYLQMSSLRSEDTAMYYCARSGWDGWFAYWGQGTLVTVSA
VL: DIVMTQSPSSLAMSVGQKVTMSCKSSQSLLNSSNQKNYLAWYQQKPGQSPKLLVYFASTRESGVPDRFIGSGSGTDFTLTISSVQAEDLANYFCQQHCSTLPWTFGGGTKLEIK
B3: 49.56C11.C1 (antibody, V domains shown)
VH: B2 VH with I28T, Y32H, S52G, Q61L, A97S
VL: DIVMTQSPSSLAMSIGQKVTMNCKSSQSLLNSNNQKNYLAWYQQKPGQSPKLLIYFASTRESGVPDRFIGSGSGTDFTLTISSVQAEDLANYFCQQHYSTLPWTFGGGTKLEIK
B4: 53.21A9.B11 (antibody, V domains shown)
VH: QVQLQESGPGLVKPSETLSLTCTVSGGSVSSGRYYWSWIRQPPGKGLEWIGYIYYSGSTNYNPSLKSRVTISVDTSKNQFSLKLTSVTAADTAVYYCARAYDWNYFFDYWGQGTLVTVSS
VL: DIVMTQSPLSLPVTPGEPASISCRSSQSLLYSNGYNYLEWYLQKPGQSPQLLIYLGSNRASGVPDRFSGSGSGTDFTLQISRVEAEDVGVYYCMQGLQTPITFGQGTRLEIK
B5: 54.69B10.E7 (antibody, V domains shown)
VH: EVQLVESGGGLVQPGGSLRLSCAASGFTFSSYDMHWVRQTTGKGLEWVSVIGIAGDTYYAGSVKGRFTISRENAKSSLYLQMNSLRAGDTAVYYCARGGNWDDAFDIWGQGTMVTVSS
VL: DIQMTQSPSSLSASVGDRVTITCRASQDINNYLAWFQQKPGKAPKSLIYTTSSLQSGVPSKFSGSGSGTDFTLTISSLQPEDFATYYCQQYVSYPYTFGQGTKLEIK
B6: 54.8A5.A5 (antibody, V domains shown)
VH: B5 VH with G10D, V12I, T28S, V50A, I53T, A60P, S76N, M113V
VL: B5 VL with K42R, Y49F, T51A, S53R, T72S, V92T, S93F
B7: 54.58C2.B9.A2 (antibody, V domains shown)
VH: B5 VH with T40A, A54S, A60P, S76N
VL: B5 VL
B8: 54.76D9.B6 (antibody, V domains shown)
VH: B5 VH with T40A, A54S, A60P, S76N, Y79H, F105L
VL: B5 VL
B9: 56.16A1.H11 (antibody, V domains shown)
VH: EVQLVESGGGLVQPGRSMKLSCAASGFIFTNYDMAWVRQAPTKGLEWVASISYGGSRIYYRDSVKGRFTISRDDAKSTLYLQMDSLRSEDTATYYCTTDYGYNPSYYWYFDFWGPGTMVTVSS
VL: DIQMTQTPSSMPASLGERVTISCRASQGISNYLNWYQQKPDGTIKPLIYYTSNLQSGVPSRFSGSGSGTDYSLTISSLEPEDFAMYYCQQYDSSPYTFGAGTKLELKR

Numbering of substitutions follows the chain as printed. Where only a bound is given, the exact number is not on record here.

One experiment deals with recombinant human SIRPα-His V2 (human, UniProt P78324 31-370). The experiment is described as follows: Biacore. (In general: SPR reads the build-up and loss of mass on a sensor chip optically.)
recombinant human SIRPα-His V2, sequence (P78324 other isoform, or with tags, fused parts or gaps): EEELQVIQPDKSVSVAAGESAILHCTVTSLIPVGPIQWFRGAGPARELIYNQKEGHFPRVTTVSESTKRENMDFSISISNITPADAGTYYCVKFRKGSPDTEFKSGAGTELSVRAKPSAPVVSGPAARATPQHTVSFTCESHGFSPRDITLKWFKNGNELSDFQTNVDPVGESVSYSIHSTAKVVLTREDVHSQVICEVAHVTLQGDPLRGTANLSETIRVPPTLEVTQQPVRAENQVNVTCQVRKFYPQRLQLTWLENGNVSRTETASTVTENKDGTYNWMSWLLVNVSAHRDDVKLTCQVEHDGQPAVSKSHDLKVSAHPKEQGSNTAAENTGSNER
Usually Kd stands for the concentration at which binding is half-saturated. For the molecule B1, the Kd worked out at 40.2 nM.

Regarding B2, the dissociation constant Kd stood at 3.17 nM.

Consider B3, for which the Kd is 3.41 nM.

As for B4, the Kd is 67.6 nM.

With B5, the Kd was < 0.1 nM.

Take B6: the Kd amounted to 1.13 nM.

Consider B7, for which the Kd is < 0.1 nM.

Consider B8, for which the dissociation constant (Kd) was < 0.1 nM.

As for B9, the Kd turned out to be 0.981 nM.

For another experiment, the target named is T1, recombinant cyno SIRPα-His. Kind of experiment: Biacore.
With B2, the Kd amounted to 22.6 nM.

Take B3: the Kd was found to be 22.3 nM.

As to B4, the Kd came out at 116 nM.

For B5, the Kd turned out to be 3.03 nM.

Turning to B6, the Kd was found to be 72.3 nM.

Turning to B7, the Kd was found to be 2.65 nM.

Consider B8, for which the dissociation constant (Kd) was 3.17 nM.

Consider B9, for which the dissociation constant Kd stood at 1.19 nM.

The next experiment deals with recombinant human SIRPα-His V8 (human, UniProt P78324 31-370). Kind of experiment: Biacore.
recombinant human SIRPα-His V8, sequence (P78324 other isoform, or with tags, fused parts or gaps): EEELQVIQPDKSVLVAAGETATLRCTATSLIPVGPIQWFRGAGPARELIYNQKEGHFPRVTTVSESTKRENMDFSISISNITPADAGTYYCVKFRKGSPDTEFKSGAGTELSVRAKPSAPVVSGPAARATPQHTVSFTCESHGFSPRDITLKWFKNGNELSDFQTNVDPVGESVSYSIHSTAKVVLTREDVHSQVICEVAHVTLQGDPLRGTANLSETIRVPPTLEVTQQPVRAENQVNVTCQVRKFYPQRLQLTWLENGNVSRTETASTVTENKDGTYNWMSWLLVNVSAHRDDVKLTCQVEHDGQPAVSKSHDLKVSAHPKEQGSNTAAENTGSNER
As for B1, the equilibrium dissociation constant (Kd) came out at 35 nM.

Consider B2, for which the dissociation constant (Kd) came to 2.66 nM.

Consider B3, for which the Kd was found to be 2.68 nM.

As to B4, the dissociation constant Kd stood at 62.3 nM.

Turning to B5, the dissociation constant Kd is < 0.1 nM.

As to B6, the equilibrium dissociation constant (Kd) turned out to be 1.05 nM.

On to B7, for which the Kd was < 0.1 nM.

In the case of B8, the dissociation constant (Kd) was < 0.1 nM.

In the case of B9, the dissociation constant (Kd) worked out at 0.337 nM.
